In publication PMC5986701, “A quantitative characterization of interaction between prion protein with nucleic acids” one finds Kd data, which are given here for nine molecules.

Series [1] deals with T1, alpha-PrP (human recombinant prion protein) (human, UniProt P04156 23-230). As to the kind of experiment: fluorescence anisotropy; pH 5. In general terms: Fluorescence polarisation rises when a labelled molecule tumbles more slowly, as on binding a larger partner.
The target of series [2] is T1, alpha-PrP (human recombinant prion …). The series can be described thus: fluorescence anisotropy; pH 7.2.

As usually defined, the Kd is a measure of binding affinity in units of concentration.

On to GUCAAGGACAAGGUCAAGGUCAAGGUUCUUUUACUGCUUUGGGC (structured_RNA) [Ym44], for which the Kd worked out at 1.63 ± 0.4 µM in series [1] (pseudoknot) and 1.79 ± 0.57 µM in series [2] (pseudoknot).

B1: MNV (structured_RNA)
RNA: GGGUUCAUAGCCUAUUCGGCUUUUAAAGGACCUUUUUCCCUCGCGUAGCUAGCUACGCGAGGUGACCCCCCGAAGGGGGGUGCCCC
Turning to B1, the Kd in series [2] is 4.15 ± 0.61 µM.

B2: NC-DNA (dsDNA)
DNA 1: GACTTGTGGAAAATCTCTAGCAGTGCAT
DNA 2: ATGCACTGCTAGAGATTTTCCACAAGTC
As to B2, the dissociation constant Kd in series [1] came to 1.11 ± 0.23 µM; in series [2], 1.29 ± 0.21 µM.

Take CAGGGUGGCACCUGGGGGCAGCCCCACGGUGGUGGCUG (structured_RNA) [Mm38]: the dissociation constant (Kd) in series [1] (pseudoknot) came to 3.82 ± 0.4 µM.

On to GCCCCAUGGAGGUGGCUGGGGCCAGCCUCAUGGAGGUGGCUGGGGC (structured_RNA) [Cm47 (Cm48 in Table 2)], for which the Kd in series [1] (pseudoknot) is 1.51 ± 0.35 µM; in series [2] (pseudoknot) it was 1.61 ± 0.4 µM.

B3: Lef-DNA (dsDNA)
DNA 1: GAGCTTCAAAGGGTG
DNA 2: CACCCTTTGAAGCTC
On to B3, for which the Kd in series [1] came to 1.25 ± 0.32 µM; in series [2], 5.73 ± 0.57 µM.

B4: RQT157 (RQ157) (structured_RNA)
RNA: GGGGUUUCGAACCGGAAUUUGAGGGAUGCCUAGGCAUCCCCCGUGCGUCCCUUUACGAGGGAUUGUCGACUCUAGAGGAUCCGGUACCUGAGGGAUGCCUAGGCAUCCCCGCGCGCCGGUUUCGGACCUCCAGUGCGUGUUACCGCACUGUCGACCC
For B4, the Kd in series [2] stood at 2.89 ± 1.5 µM.

With GCCUCAUGGUGGUGGCUGGGGGCAGCCUCAUGGUGGUGGCUGGGG (structured_RNA) [Hm45], the dissociation constant (Kd) is 2.9 ± 0.41 µM in series [1] (pseudoknot) and 3.34 ± 0.15 µM in series [2] (pseudoknot).

B5: RQ11+12 (structured_RNA)
RNA: GGGGUUUCCAACCGGAAUUUGAGGGAUGCCUAGGCAUCCCCCGUGCGUCCCUUUACGAGGGAUUGUCGACUCUAGUCGACGUCUGGGCGAAAAAUGUACGAGAGGACCUUUUCGGUACAGACGGUACCUGAGGGAUGCCUAGGCAUCCCCGCGCGCCGGUUUCGGACCUCCAGUGCGUGUUACCGCACUGUCGACCC
With B5, the Kd in series [2] stood at 2.2 ± 1.5 µM.
